Measured values published in US20120028894A1.

Molecular target: Insulin-Degrading Enzyme (IDE), species not stated (Homo sapiens (Human)) (UniProt P14735)
Assay: cell-based or functional assay

insulin degradation by IDE without inhibitor, 16 hours at 37 C, insulin ELISA (% degradation): 60
Substance: Insulin isolated from bovine pancreas (SIGMA) (from UniProt P01317 85-105; P01317 25-54) (ligand)
